Test [1] concerns the target MA-SP1.FP: uncleaved MA-CA-SP1 Gag derivative carrying eCFP or eYFP, in HIV^eCFP/eYFP particles of the MA-SP1 cleavage site variant (HIV-1 NL4-3). The test is described as follows: FRET or BRET; cuvette-based; dual-labeled particles in PBS at 25°C, 0.05% TX-100 added at t = 0 to strip the lipid envelope; emission at 528 nm (excitation 433 nm) followed at 1 s resolution, or spectra after 15 min; normalized to the signal before detergent.

The target is the same in test [2]. Description: FRET or BRET; stopped-flow; dual-labeled particles mixed with 0.05% TX-100 in PBS at 25°C, excitation 436 nm, long pass filter 515 nm; five to six traces averaged; single or double exponential fits of the FRET decay. Background: Bioluminescence resonance energy transfer reports proximity on the nanometre scale.
In test [3] the target is MA-CA.FP: uncleaved MA-CA Gag derivative carrying eCFP or eYFP, in HIV^eCFP/eYFP particles of the MA-CA cleavage site variant (HIV-1 NL4-3). The test is described as above.
Test [4] concerns the target Gag.FP: unprocessed HIV-1 Gag polyprotein carrying eCFP or eYFP between MA and CA, in immature HIV^eCFP/eYFP particles (HIV-1 NL4-3). The test is described as above.
The target in test [5] is MA.FP: HIV-1 matrix protein (MA) carrying eCFP or eYFP, in mature HIV^eCFP/eYFP particles (HIV-1 NL4-3). The description is as above.

Substance “MA-SP1.FP: uncleaved MA-CA-SP1 Gag derivative carrying eCFP or eYFP, in HIV^eCFP/eYFP particles of the MA-SP1 cleavage site variant (domain or fragment)” gave a plateau of the FRET signal after detergent, % of the initial value in test [1] of 75%. Besides, in test [2], the k1, rate constant of FRET decay (fast phase, double exponential) is 0.129 s⁻¹ and the k2, rate constant of FRET decay (slow phase, double exponential) is 0.0078 s⁻¹.

In test [3], “MA-CA.FP: uncleaved MA-CA Gag derivative carrying eCFP or eYFP, in HIV^eCFP/eYFP particles of the MA-CA cleavage site variant (domain or fragment)” yielded a k1, rate constant of FRET decay (fast phase, double exponential) of 0.127 s⁻¹ and a k2, rate constant of FRET decay (slow phase, double exponential) of 0.0082 s⁻¹.

“Gag.FP: unprocessed HIV-1 Gag polyprotein carrying eCFP or eYFP between MA and CA, in immature HIV^eCFP/eYFP particles (natural protein)” showed a k1, rate constant of FRET decay (single exponential) in test [4] of 0.018 s⁻¹.

“MA.FP: HIV-1 matrix protein (MA) carrying eCFP or eYFP, in mature HIV^eCFP/eYFP particles (natural protein)” displayed a k1, rate constant of FRET decay (single exponential) in test [5] of 0.099 s⁻¹.
